Numbering of substitutions follows the chain as printed. In names and notes the source's numbering stands.

This note sets out measurements from patent US20120316071A1 (published 2012).

T1: rHuman Erythropoietin R/Fc Chimera, CF (R&D Systems Cat#963-ER) (human, UniProt P19235 25-250)
T1 construct: Bought recombinant Fc chimera; also called EPO R; EPO R/Fc; Fc part of the bought chimera not given
T1 sequence (looked up): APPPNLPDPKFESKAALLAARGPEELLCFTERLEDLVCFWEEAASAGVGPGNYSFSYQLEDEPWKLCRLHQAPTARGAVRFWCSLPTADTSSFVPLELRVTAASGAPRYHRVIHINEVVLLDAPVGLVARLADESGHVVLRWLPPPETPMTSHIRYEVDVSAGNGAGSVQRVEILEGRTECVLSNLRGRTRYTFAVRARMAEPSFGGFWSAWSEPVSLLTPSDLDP

B1: Fab VH1-46_IGHD6-6*01_IGHJ1*01 S102A/S103P/S104F/H111F S54L & L6_IGKJ1*01 (Fab, V domains shown)
VH: QVQLVQSGAEVKKPGASVKVSCKASGYTFTSYYMHWVRQAPGQGLEWMGIINPLGGSTSYAQKFQGRVTMTRDTSTSTVYMELSSLRSEDTAVYYCAREEYAPFSAEYFQFWGQGTLVTVSS
VL: not shown
notes: Fab made in E. coli; CH1 with tags and kappa CL are not included; also called APFF S54L
B2: Fab VH1-46_IGHD6-6*01_IGHJ1*01 S102A/S103P/S104F/H111F S54V & L6_IGKJ1*01 (Fab, V domains shown)
VH: B1 VH with L54V
VL: not shown
notes: Fab made in E. coli; CH1 with tags and kappa CL are not included; also called APFF S54V
B3: Fab VH1-46_IGHD6-6*01_IGHJ1*01 S102A/S103P/S104F/H111F S54A/S59N & L6_IGKJ1*01 (Fab, V domains shown)
VH: B1 VH with L54A, S59N
VL: not shown
notes: Fab made in E. coli; CH1 with tags and kappa CL are not included; also called APFF S54A/S59N
B4: Fab VH1-46_IGHD6-6*01_IGHJ1*01 S102A/S103P/S104F/H111F S54Q & L6_IGKJ1*01 (Fab, V domains shown)
VH: B1 VH with L54Q
VL: not shown
notes: Fab made in E. coli; also called APFF S54Q
B5: Fab VH1-46_IGHD6-6*01_IGHJ1*01 S102A/S103P/S104F/H111F S54E & L6_IGKJ1*01 (Fab, V domains shown)
VH: B1 VH with L54E
VL: not shown
notes: Fab made in E. coli; CH1 with tags and kappa CL are not included; also called APFF S54E
B6: Fab VH1-46_IGHD6-6*01_IGHJ1*01 S102A/S103P/S104F/H111F S54G & L6_IGKJ1*01 (Fab, V domains shown)
VH: B1 VH with L54G
VL: not shown
notes: Fab made in E. coli; CH1 with tags and kappa CL are not included; also called APFF S54G
B7: Fab VH1-46_IGHD6-6*01_IGHJ1*01 S102A/S103P/S104F/H111F (APFF) & L6_IGKJ1*01 S28N (Fab, V domains shown)
VH: B1 VH with L54S
VL: EIVLTQSPATLSLSPGERATLSCRASQNVSSYLAWYQQKPGQAPRLLIYDASNRATGIPARFSGSGSGTDFTLTISSLEPEDFAVYYCQQRSNWPPWTFGQGTKVEIKR
notes: Fab; VH cloned into Plasmid A (CH1, His6 and Flag tags) and VL into Plasmid C (kappa CL); also called APFF / S28N
B8: Fab VH1-46_IGHD6-6*01_IGHJ1*01 S102A/S103P/S104F/H111F (APFF) & L6_IGKJ1*01 S28E (Fab, V domains shown)
VH: B1 VH with L54S
VL: B7 VL with N28E
notes: Fab; VH cloned into Plasmid A (CH1, His6 and Flag tags) and VL into Plasmid C (kappa CL); also called APFF / S28E
B9: Fab VH1-46_IGHD6-6*01_IGHJ1*01 S102A/S103P/S104F/H111F/I51Y/N52L/S54T/G56H (APFF YLTH) & L6_IGKJ1*01 (Fab, V domains shown)
VH: B1 VH with I51Y, N52L, L54T, G56H
VL: not shown
notes: Fab made in E. coli; CH1 with tags and kappa CL are not included
B10: Fab VH1-46_IGHD6-6*01_IGHJ1*01 S102A/S103P/S104F/H111F/N52L/S54T/G56H (APFF LTH) & L6_IGKJ1*01 (Fab, V domains shown)
VH: B1 VH with N52L, L54T, G56H
VL: not shown
notes: Fab made in E. coli; CH1 with tags and kappa CL are not included; also called H:APFF LTH & L:wt
B11: Fab VH1-46_IGHD6-6*01_IGHJ1*01 S102A/S103P/S104F/H111F/I51T/N52L/S54T/G56H (APFF TLTH) & L6_IGKJ1*01 (Fab, V domains shown)
VH: B1 VH with I51T, N52L, L54T, G56H
VL: not shown
notes: as for B9
B12: Fab VH1-46_IGHD6-6*01_IGHJ1*01 S102A/S103P/S104F/H111F/I51V/N52L/S54T/G56H (APFF VLTH) & L6_IGKJ1*01 (Fab, V domains shown)
VH: B1 VH with I51V, N52L, L54T, G56H
VL: not shown
notes: as for B9
B13: Fab VH1-46_IGHD6-6*01_IGHJ1*01 S102A/S103P/S104F/H111F/I51R/N52L/S54T/G56H (APFF RLTH) & L6_IGKJ1*01 (Fab, V domains shown)
VH: B1 VH with I51R, N52L, L54T, G56H
VL: not shown
notes: as for B9
B14: Fab VH1-46_IGHD6-6*01_IGHJ1*01 S102A/S103P/S104F/H111F/I51N/N52L/S54T/G56H (APFF NLTH) & L6_IGKJ1*01 (Fab, V domains shown)
VH: B1 VH with I51N, N52L, L54T, G56H
VL: not shown
notes: as for B9
B15: Fab VH1-46_IGHD6-6*01_IGHJ1*01 S102A/S103P/S104F/H111F/I51W/N52L/S54T/G56H (APFF WLTH) & L6_IGKJ1*01 (Fab, V domains shown)
VH: B1 VH with I51W, N52L, L54T, G56H
VL: not shown
notes: as for B9

One test has as its target T2, Recombinant Human DLL4 (delta-like protein 4) (human, UniProt Q9NR61 27-529).
T2 construct: Bought recombinant human DLL4 (R&D Systems Cat#1506-D4/CF), coated on the plate; also called rHuman DLL4; Delta-like 4
Description: 96-well plate ECL (MSD) binding assay on coated DLL4, 10 nM Fab.
Regarding B1, the “ECL signal” value amounted to 28200.
On the same count and under the same terms, the value for B2 was 22200; that for B3 was 17300; that for B4 was 41800.
As to B5, the “ECL signal” value is 36800.
Still for that read-out and setting: the same measure for B6: 47000.

The target of a further test is T3, rHuman P-Cadherin/Fc Chimera, CF (R&D Systems Cat#861-PC) (human, UniProt P22223 108-654).
T3 construct: Bought recombinant Fc chimera; Fc part of the bought chimera not given
The test can be described thus: ECL multispot (MSD), antigen spotted, Fab in solution.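 Also: purified Fab incubated 1 h at 20 °C on antigen-spotted wells, bound Fab detected via TAG detection antibody, ECL compared with each well's blank, ratio of 4 or above scored as hit.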
Turning to B7, the ECL signal came to 447.
Still for that read-out and setting: the value for B8 was 393.

Another test deals with T4, rHuman Notch-1/Fc Chimera, CF (R&D Systems Cat#3647-TK) (human, UniProt P46531 19-526).
T4 construct: Bought recombinant Fc chimera; Fc part of the bought chimera not given
Described as above.
As to B7, the ECL signal was determined as 243.
B8: the ECL signal was 433.

The target of a further test is T5, rHuman HGF R/c-MET/Fc Chimera, CF (R&D Systems Cat#358-MT/CF) (human, UniProt P08581 25-932).
T5 construct: Bought recombinant Fc chimera; also called HGF R/Fc; hepatocyte growth factor receptor; Fc part of the bought chimera not given
T5 sequence (P08581 25-932, change not shown): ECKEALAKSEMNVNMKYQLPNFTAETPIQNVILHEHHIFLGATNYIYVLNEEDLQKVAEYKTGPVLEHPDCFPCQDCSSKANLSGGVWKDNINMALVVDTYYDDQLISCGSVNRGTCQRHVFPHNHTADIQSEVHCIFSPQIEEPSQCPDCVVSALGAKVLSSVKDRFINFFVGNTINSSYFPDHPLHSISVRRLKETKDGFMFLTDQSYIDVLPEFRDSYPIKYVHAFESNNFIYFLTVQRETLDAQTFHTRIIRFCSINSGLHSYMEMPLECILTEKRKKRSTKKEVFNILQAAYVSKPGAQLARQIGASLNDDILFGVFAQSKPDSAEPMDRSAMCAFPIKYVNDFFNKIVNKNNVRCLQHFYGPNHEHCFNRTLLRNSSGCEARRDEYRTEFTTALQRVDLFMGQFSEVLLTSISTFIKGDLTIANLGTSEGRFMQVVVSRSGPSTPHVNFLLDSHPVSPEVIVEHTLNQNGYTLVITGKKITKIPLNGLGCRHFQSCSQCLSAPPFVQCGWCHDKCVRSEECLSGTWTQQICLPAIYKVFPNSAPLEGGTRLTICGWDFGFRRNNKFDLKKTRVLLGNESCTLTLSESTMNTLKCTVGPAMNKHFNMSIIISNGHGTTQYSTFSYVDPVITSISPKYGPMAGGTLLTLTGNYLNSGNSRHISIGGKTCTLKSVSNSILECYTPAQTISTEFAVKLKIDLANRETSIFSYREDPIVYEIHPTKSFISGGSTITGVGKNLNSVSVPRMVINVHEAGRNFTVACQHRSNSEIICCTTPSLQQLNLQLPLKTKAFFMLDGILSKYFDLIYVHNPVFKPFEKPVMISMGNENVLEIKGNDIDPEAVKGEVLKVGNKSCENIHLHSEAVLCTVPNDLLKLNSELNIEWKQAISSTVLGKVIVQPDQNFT
Described as above.
For B7, the ECL signal worked out at 406.
Still for that read-out and setting: the value for B8 was 401.

The target of the next test is T6, rHuman CD44/Fc Chimera, CF (R&D Systems Cat#3660-CD) (human, UniProt P16070 21-220).
T6 construct: Bought recombinant Fc chimera; Fc part of the bought chimera not given
Described as above.
For the molecule B7, the ECL signal worked out at 399.
Still for that read-out and setting: the same measure for B8: 461.

Another test deals with T7, rHuman IGF-1 sR, (IGF-1 sR), CF (R&D Systems Cat#391-GR) (human, UniProt P08069 31-932).
T7 construct: Bought recombinant soluble receptor; The column head prints only 'IGF-1'; also called insulin-like growth factor-1 soluble receptor
The description is as above.
The molecule B7 displayed an ECL signal of 331.
With B8, the ECL signal was found to be 361.

A further test addresses T8, rHuman ErbB2/Fc Chimera, CF (R&D Systems Cat#1129-ER) (human, UniProt P04626 23-652).
T8 construct: Bought recombinant Fc chimera; also called human epidermal growth factor 2 receptor; Fc part of the bought chimera not given
Described as above.
In turn, B7 registered an ECL signal of 363.
For B8, the ECL signal was found to be 389.

The target of a further test is T1, rHuman Erythropoietin R/Fc Chimera, CF …. The test is described as above.
Molecule B7 came in with an ECL signal of 440.
Same read-out and setting: the value for B8 was 513.

Another test has as its target T9, rHuman EGF R/Fc Chimera, CF (R&D Systems Cat#344-ER) (human, UniProt P00533 25-645).
T9 construct: Bought recombinant Fc chimera; also called epidermal growth factor receptor; Fc part of the bought chimera not given
The test is described as above.
B7 had an ECL signal of 325.
As for B8, the ECL signal stood at 396.

In another test the target is T2, Recombinant Human DLL4 (delta-like …). Description: 96-well plate ECL (MSD) binding assay on coated DLL4, 10 nM Fab. The source holds these as a separate data set.
On to B9, for which the “ECL signal” value is 155000.
Same read-out and setting: the same measure for B10: 165000.
On the same count and under the same terms, the value for B11 was 123000.
On the same count and under the same terms, the value for B12 was 192000; that for B13 was 92400; that for B14 was 126000.
On to B15, for which the “ECL signal” value amounted to 126000.

Another test has the same target. The test can be described thus: ELISA on coated DLL4, 100 nM Fab. A general note: In an ELISA, binding on a coated surface is turned into a signal by an enzyme label.
In the case of B9, the “ELISA signal” value was 0.513.
The same measure, in the same setting: the same measure for B10: 1.1; for B11: 0.641.
The same measure, in the same setting: the value for B12 was 1.1; that for B13 was 0.512.
In the case of B14, the “ELISA signal” value stood at 1.09.
Still for that read-out and setting: the same measure for B15: 0.088.

The target is the same in another test. The test can be described thus: ELISA on coated DLL4, 100 nM Fab. This is another data set of the same source.
With B1, the “ELISA signal” value is 0.02.
The same measure, in the same setting: the same measure for B2: 0; for B3: 0.1; for B4: 0.07.
In the case of B5, the “ELISA signal” value was 0.04.
For the molecule B6, the “ELISA signal” value came to 0.06.
